# Source: the RNAGym collection of RNA variant scans (doi:10.1073/pnas.2313332121)
# B1: TPR t1 (parent)
# chain: GACCAAUCUGCCCUCAGAGCUCGAGAACAUCUUCGGAUGCAGAGGAGGCAGGCUUCGGUGGCGCGAUAGCGCCAACGUCCUCAACCUCCAAUGCAUCCCACCACAUGAUGAUGCCUGAAGAGCCUUGGUUUUUUG
# Variants of: B1
# Assay: polymerase ribozyme fitness, log enrichment relative to wild type (log ratio); higher = more active; in vitro selection for triplet polymerase activity
# How it was run: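 For each subunit of a heterodimeric triplet polymerase ribozyme, a mutant library was built by PCR and transcribed, then taken through a single in vitro selection round in triplicate. Selection involved annealing to a biotinylated primer, the partner subunit and triplets, incubation frozen at −7 °C, gel excision of extended constructs, capture on streptavidin beads and RT-PCR. Genotypes were retained after Illumina sequencing of inputs and outputs only with ≥10 input reads and ≥1 read in each output. Fitness is defined as the logarithm of a genotype's enrichment relative to wild-type enrichment, using inverse-variance-weighted averages across replicates, with the logarithm taken to base 2.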
row,Variant,polymerase ribozyme fitness (log ratio)
1,A6G G45C C94U G120A U126G,-5.4
2,U55G C85A,-1.66
3,C34A G39U C73G C98A,-4.33
4,C8U C20U U38G C62G G113U,-3.27
5,C4U G60C A83U A84C C86A,-2.24
6,C56U G107U,-4.6
7,A43C C72U A100U U130G,-4.41
8,G48U C94G,-1.44
9,C40U C56U A90U,-2.08
10,G63A A66G,-1.9
11,G47U C62U U78C G117C,-5.23
12,C12U C98G,-4.85
13,C12U C70A C88G U129C,-2.57
14,G117A A119G,1.29
15,C3U G120A,0.234
16,G117A,-1.1
17,C13G A16U C82A C89G,-4.33
18,C12A C15A,-3.39
19,A41C A43C C72G C88A G93U C99A C102A C124A,-7.15
20,C28U C104U,-2.27
21,A26G C62U C80G G110C,-7.8

row,Variant,polymerase ribozyme fitness (log ratio)
1,A16C U106A,-2.82
2,C12U G58A C62A,-1.76
3,C94U U125A,-0.818
4,A43U G110U,-3.52
5,C13U A50G G52A G69A G77U,-2.68
6,U38G A41U,-2.98
7,C3A C40G,-2.2
8,G61A C114U,-1.49
9,G61A C114A,-0.372
10,C53U G122A,-0.631
11,C13G C15A,-2.5
12,C3U C12U G110A,-0.836
13,C11U G48U G113A,-2.84
14,G60A C99U G110U U130A,-5.82
15,C49A C88G G120C,0.68
16,A50C C56U,-0.0268
17,C13G G63C,-1.92
18,A18C G39A,-3.32
19,G10A U112G,1.07
20,C8G A50U,-0.104
21,A24G G60C C79A G122A,-5.59

row,Variant,polymerase ribozyme fitness (log ratio)
1,C13G G58C U92C,-3.7
2,C73U A100U G110A,-1.9
3,U81C C82A,-1.8
4,A27G C49A U78C,-2.36
5,A18C C72U C73U U106A C124U,-1.79
6,G35U C64U A90U U106A C115G G117A A119G,-6.88
7,C12U A41U,-0.786
8,A26C A27C U59A C72U C123A,-6.08
9,A18G G39C,-4.37
10,G10C G69U G107C G120U,-2.44
11,U59A C64A A118U,-6.49
12,U92G A121G,-0.555
13,C89U U126C,-1.11
14,A6C G113U,-3.54
15,A2G U78A G128A,-2.62
16,C70A U87C C102A,-3.97
17,C80U G110A,-1.21
18,C79U G135U,-0.964
19,C12A G57U G71U,-0.629
20,C13U G51U G52U U78C C82A,-2.57
21,G10U C13A C72U U109A,-6.62

row,Variant,polymerase ribozyme fitness (log ratio)
1,C49A C56A U59A C73G C114A G128C,-8.01
2,C28A C79A A111C U112G,-6.04
3,C11U C22G A111G G122U U129C,-6.1
4,C13U U132C,0.0693
5,C12U C53G,-0.45
6,A16C U38G C70A,-4.31
7,U7G C40U U54C C73A U106A,1.14
8,A18C C88G G120A,-2.81
9,C13G G42A C85U C124G,-1.82
10,G19A G48U C49U G69U G93U,-4.49
11,U9C A26G A27U U54A A74G C82G,-6.24
12,C8A A46C C56G G127A,-3.01
13,A43U C56G C79G,-4.99
14,C12U A46U,-0.688
15,C12G G44A C73G C82U,-0.977
16,C101U G122A,-1.06
17,A26U G69A U78G U106A,-4.44
18,U7A A103C,-4.75
19,C3U C12G C85U,-1.47
20,A5U A37U U55A C123A,0.562
